According to PMC9343077 (Research, 2022):

Molecular target: T1, SARS-CoV-2 spike RBD (Arg319-Asn532) fused to a His tag (SARS-CoV-2, UniProt P0DTC2)
T1 construct: also called SARS-CoV-2 spike RBD-His; SARS-CoV-2-RBD-His; not shown: His tag, N-terminal, kept
Experiment: radioligand binding
Conditions: both partners purified

B1: ^68Ga-Nb1159 (nanobody Nb11-59 conjugated to NOTA and radiolabeled with ^68Ga) (VHH)
VHH: EVQLQESGGGLVQPGGSLRLSCAASGFTFSSYDMSWVRQAPGKGLEWVSAINSSGGSTYYADSVKGRFTISRDNAKNTLYLQMNSLKTEDTAVYYCAPSQTYGGSWYWDPIGDWGQGTLVTVSS
notes: also called ^68Ga-NOTA-Nb1159; NOTA-Nb1159 (before labelling)
- Kd: 0.0255 µM
